# Experimental data as given in article PMC6922461.
# B1: Siglec-14 with N-terminal Strep-tag II, on THP-1 cells (receptor)
# chain: SAWSHPQFEKEKPVYELQVQKSVTVQEGLCVLVPCSFSYPWRSWYSSPPLYVYWFRDGEIPYYAEVVATNNPDRRVKPETQGRFRLLGDVQKKNCSLSIGDARMEDTGSYFFRVERGRDVKYSYQQNKLNLEVTALIEKPDIHFLEPLESGRPTRLSCSLPGSCEAGPPLTFSWTGNALSPLDPETTRSSELTLTPRPEDHGTNLTCQVKRQGAQVTTERTVQLNVSYAPQNLAISIFFRNGTGTALRILSNGMSVPIQEGQSLFLACTVDSNPPASLSWFREGKALNPSQTSMSGTLELPNIGAREGGEFTCRVQHPLGSQHLSFILSVQRSSSSCICVTEKQQGSWPLVLTLIRGALMGAGFLLTYGLTWIYYTRCGGPQQSRAERPG
# Target: trivalent Strep-Tactin-SpyCatcher
binder,measurement,value
B1,IL-8 secretion of THP-1 Siglec-14–Strep-tag II DAP12 cells against Strep-tag II–binding sites of trivalent generic ligand per CHO cell; mean EC50 (Strep-tag II–binding sites per cell),200000
